± gives the uncertainty stated by the source.
Assay: protein stability index of a GFP-peptide fusion (yeast GPS) (PSI 1-4); higher = more stable; sorted into four equal gates, so the index is relative within each strain
Summary of the method: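 Tiled yeast protein peptides of 17 residues were each joined downstream of GFP, on plasmids that also express Cherry. The pooled library was maintained in yeast, and mid-log cultures in leucine-free medium were sorted into four equal gates on the GFP/Cherry ratio. Plasmids from every gate were amplified by PCR and sequenced on Illumina, with barcodes linking reads to strains. The protein stability index of a peptide is its gate-number-weighted read frequency summed over the gates.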

Sequence | protein stability index (doa10∆) | protein stability index (pdr5∆) | protein stability index (san1∆) | protein stability index (ubr1∆)
PKIETNVYVGMTDMQIQ [ISW2] | 2.96 ± 0.091 | 2.99 ± 0.091 | 3.04 ± 0.069 | 3.29 ± 0.11
PKNVPTSKWLNSITSGG [YDL116W/NUP84] | 2.35 ± 0.072 | 2.56 ± 0.068 | 2.23 ± 0.14 | 2.6 ± 0.064
PKPLKFLRPTYPDLCSI [RPN1] | 2.61 ± 0.07 | 2.69 ± 0.067 | 2.4 ± 0.06 | 2.5 ± 0.042
PKSGIDIFVYLTYDKDL [MTR3] | 1.9 ± 0.062 | 1.58 ± 0.052 | 1.78 ± 0.11 | 1.7 ± 0.053
PKSLNSNININVNNNNI [SWI1] | 3.03 ± 0.14 | 2.63 ± 0.12 | 3.04 ± 0.066 | 2.81 ± 0.098
PKTELTKGDSTPVQPDL [YAR002W/NUP60] | 3.16 ± 0.055 | 3.14 ± 0.067 | 3.08 ± 0.072 | 3.1 ± 0.037
PLIIVSDGQSRVKDIHL [RET1] | 2.88 ± 0.3 | 3.58 ± 0.24 | 3.05 ± 0.2 | 2.79 ± 0.15
PLIKKIKYEPRFEKAVK [SMC3] | 2.75 ± 0.072 | 2.72 ± 0.098 | 2.53 ± 0.13 | 2.48 ± 0.079
PLKTQTKNGTPNPNNMK [GAL11] | 2.98 ± 0.085 | 2.94 ± 0.084 | 2.73 ± 0.046 | 2.95 ± 0.043
PLLAQLFKTLFKKLTKD [RPB2] | 2.65 ± 0.04 | 1.29 ± 0.039 | 1.18 ± 0.092 | 1.16 ± 0.03
PLLEAKKLVWPLHLIFA [SSN2] | 1.61 ± 0.083 | 1.29 ± 0.059 | 1.24 ± 0.11 | 1.19 ± 0.06
PLLSKKERLVRDKKEKK [SMB1] | 3.37 ± 0.24 | 3 ± 0.11 | 2.72 ± 0.18 | 3.15 ± 0.17
PLSAGFNYGKLPLPPSV [SIN4] | 2.75 ± 0.074 | 2.9 ± 0.068 | 2.84 ± 0.038 | 2.93 ± 0.051
PLSGLLFKNYRFNFISK [YMR129W/POM152] | 2.85 ± 0.11 | 2.17 ± 0.07 | 1.73 ± 0.098 | 2.25 ± 0.094
PLSNIKALLFFNNEKET [RPN12] | 1.46 ± 0.056 | 1.4 ± 0.062 | 1.2 ± 0.088 | 1.13 ± 0.053
PLSVATELMNRSPLVTP [SRP72] | 2.14 ± 0.068 | 2.48 ± 0.069 | 2.4 ± 0.06 | 2.03 ± 0.06
PLVQADLYEQIGIDPPR [RPT3] | 2.48 ± 0.074 | 2.83 ± 0.1 | 2.63 ± 0.066 | 2.83 ± 0.081
PMDEETKLYFDVNEKIR [RPC25] | 3.01 ± 0.098 | 3.03 ± 0.086 | 3.01 ± 0.068 | 3.1 ± 0.1
PMIKAEETPSKTNKISI [NUT1] | 2.52 ± 0.057 | 2.8 ± 0.049 | 2.6 ± 0.06 | 2.84 ± 0.051
PMNAPTPAMIPYPGSPM [DSN1] | 2.79 ± 0.044 | 2.76 ± 0.05 | 2.99 ± 0.042 | 3.01 ± 0.034
PNCLFILKLLNGFMESA [SOH1] | 1.9 ± 0.17 | 1.54 ± 0.12 | 1.68 ± 0.18 | 1.44 ± 0.18
PNGHISTKKIQVATKYA [YMR129W/POM152] | 1.86 ± 0.082 | 2.24 ± 0.05 | 1.75 ± 0.067 | 2 ± 0.043
PNGSGKSNVIDSMLFVF [SMC4] | 2.87 ± 0.048 | 2.87 ± 0.051 | 2.68 ± 0.055 | 2.96 ± 0.037
PNLATFISSGTSLLDSL [YJL039C/NUP192] | 2.23 ± 0.047 | 2.6 ± 0.046 | 2.23 ± 0.057 | 2.1 ± 0.037
PNTKDAMSLYHSPFPFN [PRP8] | 2.64 ± 0.049 | 2.55 ± 0.053 | 2.63 ± 0.06 | 2.71 ± 0.036

Sequence | protein stability index (doa10∆) | protein stability index (pdr5∆) | protein stability index (san1∆) | protein stability index (ubr1∆)
PNYLHLVSSYLNKSDLL [YML103C/NUP188] | 1.96 ± 0.038 | 2.27 ± 0.034 | 2.21 ± 0.04 | 1.8 ± 0.031
PPDIHPNLGPQLWLNSS [GRR1] | 3.28 ± 0.089 | 3.36 ± 0.089 | 3.21 ± 0.066 | 3.14 ± 0.067
PPEVTSSNCHVRQKIKT [POP1] | 3.05 ± 0.071 | 3.1 ± 0.072 | 2.78 ± 0.073 | 3.01 ± 0.045
PPKEGNYEIVFDTVSNK [YMR129W/POM152] | 3.11 ± 0.086 | 3.13 ± 0.095 | 3.29 ± 0.26 | 3 ± 0.1
PPLTSQYSTRHDAPRGL [SWI3] | 3.13 ± 0.047 | 3.19 ± 0.06 | 3.14 ± 0.05 | 3.21 ± 0.045
PPNNARRTYNTLEDKFL [ISW2] | 2.09 ± 0.04 | 2.02 ± 0.045 | 1.6 ± 0.11 | 1.95 ± 0.035
PPQDAEGWFYKRAASVA [RPS19A] | 2.9 ± 0.27 | 1.42 ± 0.11 | 1.53 ± 0.14 | 1.56 ± 0.11
PQEESVSPNISSASPSA [SIR3] | 2.99 ± 0.048 | 3.15 ± 0.046 | 3.01 ± 0.034 | 3.03 ± 0.028
PQIAQLPLATQQQVLNK [SNF5] | 1.94 ± 0.074 | 2.3 ± 0.075 | 2 ± 0.13 | 2.17 ± 0.068
PQIVKLFDISREALSGR [ECM29] | 3.44 ± 0.15 | 3.26 ± 0.1 | 3.59 ± 0.081 | 2.95 ± 0.054
PQKNLLLKGPASTVAKT [YOR098C/NUP1] | 2.73 ± 0.057 | 2.94 ± 0.041 | 2.68 ± 0.054 | 2.83 ± 0.055
PQLTFTHVANFMNDAAA [YML103C/NUP188] | 3.04 ± 0.094 | 3 ± 0.082 | 2.7 ± 0.068 | 2.95 ± 0.05
PQNGNINNNINIPQQQQ [GAL11] | 3.32 ± 0.095 | 3.02 ± 0.12 | 3.21 ± 0.082 | 2.97 ± 0.077
PQNMLFEGCYYTPEESA [RPC25] |  | 2.42 ± 0.21 | 2.55 ± 0.21 | 2.5 ± 0.12
PQQSRYISFIKDDRFVP [RPN2] | 2.67 ± 0.055 | 2.87 ± 0.036 | 2.98 ± 0.044 | 3.11 ± 0.035
PQRCTFAFEAIDPRHLA [POP1] | 2.55 ± 0.095 | 3.01 ± 0.077 | 2.73 ± 0.087 | 3.1 ± 0.051
PQVKIREASKDNVDFIL [RPB3] | 2.55 ± 0.065 | 2.12 ± 0.033 | 2.88 ± 0.073 | 1.77 ± 0.037
PRGLRSLTTVWAEHLSD [RPL3] | 2.74 ± 0.12 | 2.83 ± 0.17 |  | 2.72 ± 0.16
PRLDAQAIKEASYVNIP [RPS0B] | 2.88 ± 0.041 | 2.84 ± 0.039 | 2.79 ± 0.044 | 2.52 ± 0.031
PRLDDVVVDTVECAQHC [SMC4] | 3.22 ± 0.1 | 3.31 ± 0.13 | 3.17 ± 0.092 | 2.75 ± 0.13
PRLDTSKEFSAYVSGLF [YJR042W/NUP85] | 2.33 ± 0.13 | 2.08 ± 0.082 | 2.05 ± 0.13 | 3.12 ± 0.13
PRLLGPQLSKAGKFPTP [RPL1A] | 2.86 ± 0.066 | 2.8 ± 0.057 | 2.74 ± 0.052 | 2.64 ± 0.035
PRMVRDVFRLARENAPS [RPT3] | 2.62 ± 0.17 | 2.88 ± 0.059 | 2.86 ± 0.16 | 2.89 ± 0.097
PRYFSEAINGFKDETIS [SIR3] | 2.77 ± 0.057 | 2.87 ± 0.054 | 2.46 ± 0.11 | 2.84 ± 0.048
PRYHSKNSFQQALQMKA [SWP82] | 1.4 ± 0.033 | 1.82 ± 0.049 | 1.38 ± 0.062 | 1.45 ± 0.043
